Values of other authors in patent publication US20200069786A1, “COMPOSITION AND PROCESS FOR PREPARING VACCINE” (TREOS BIO ZRT., priority 2018, published 2020).
Like-named read-outs stand apart in the source and are kept apart here.

B1: CCDC110 (protein, UniProt Q8TBZ0 1-833, looked up)
Coiled-coil domain-containing …: MSPEKQHREEDEVDSVLLSASKILNSSEGVKESGCSDTEYGCIAESENQIQPQSALKVLQQQLESFQALRMQTLQNVSMVQSEISEILNKSIIEVENPQFSSEKNLVFGTRIEKDLPTENQEENLSMEKSHHFEDSKTLHSVEEKLSGDSVNSLPQSVNVPSQIHSEDTLTLRTSTDNLSSNIIIHPSENSDILKNYNNFYRFLPTAPPNVMSQADTVILDKSKITVPFLKHGFCENLDDICHSIKQMKEELQKSHDGEVALTNELQTLQTDPDVHRNGKYDMSPIHQDKMNFIKEENLDGNLNEDIKSKRISELEALVKKLLPFRETVSKFHVHFCRKCKKLSKSEMHRGKKNEKNNKEIPITGKNITDLKFHSRVPRYTLSFLDQTKHEMKDKERQPFLVKQGSIISENEKTSKVNSVTEQCVAKIQYLQNYLKESVQIQKKVMELESENLNLKSKMKPLIFTTQSLIQKVETYEKQLKNLVEEKSTIQSKLSKTEEYSKECLKEFKKIISKYNVLQGQNKTLEEKNIQLSLEKQQMMEALDQLKSKEHKTQSDMAIVNNENNRMSIEMEAMKTNILLIQDEKEMLEKKTHQLLKEKSSLGNELKESQLEIIQLKEKERLAKTEQETLLQIIETVKDEKLNLETTLQESTAARQIMEREIENIQTYQSTAEENFLQEIKNAKSEASIYKNSLSEIGKECEMLSKMVMETKTDNQILKEELKKHSQENIKFENSISRLTEDKILLENYVRSIENERDTLEFEMRHLQREYLSLSDKICNQHNDPSKTTYISRREKFHFDNYTHEDTSSPQSRPLASDLKGYFKVKDRTLKHH
B2: CTCFL (protein, UniProt Q8NI51 1-663, looked up)
Transcriptional repressor …: MAATEISVLSEQFTKIKELELMPEKGLKEEEKDGVCREKDHRSPSELEAERTSGAFQDSVLEEEVELVLAPSEESEKYILTLQTVHFTSEAVELQDMSLLSIQQQEGVQVVVQQPGPGLLWLEEGPRQSLQQCVAISIQQELYSPQEMEVLQFHALEENVMVASEDSKLAVSLAETTGLIKLEEEQEKNQLLAERTKEQLFFVETMSGDERSDEIVLTVSNSNVEEQEDQPTAGQADAEKAKSTKNQRKTKGAKGTFHCDVCMFTSSRMSSFNRHMKTHTSEKPHLCHLCLKTFRTVTLLRNHVNTHTGTRPYKCNDCNMAFVTSGELVRHRRYKHTHEKPFKCSMCKYASVEASKLKRHVRSHTGERPFQCCQCSYASRDTYKLKRHMRTHSGEKPYECHICHTRFTQSGTMKIHILQKHGENVPKYQCPHCATIIARKSDLRVHMRNLHAYSAAELKCRYCSAVFHERYALIQHQKTHKNEKRFKCKHCSYACKQERHMTAHIRTHTGEKPFTCLSCNKCFRQKQLLNAHFRKYHDANFIPTVYKCSKCGKGFSRWINLHRHSEKCGSGEAKSAASGKGRRTRKRKQTILKEATKGQKEAAKGWKEAANGDEAAAEEASTTKGEQFPGEMFPVACRETTARVKEEVDEGVTCEMLLNTMDK

Test system: TSA
[1] = TSA expression rate in MELANOMA

Molecule	TSA Expression Rate (ER) (HCC) [%]	TSA Expression Rate (ER) (LUNG) [%]	TSA Expression Rate (ER) (PANCREATIC) [%]	Expression Rate (ER) % (TSA expression rate in CRC) [%]	Expression Rate (ER) % (TSA expression rate in GASTRIC cancer) [%]	Expression Rate (ER) % (TSA expression rate in HEAD and NECK) [%]	Expression Rate (ER) % [1] [%]	TSA Expression Rate (ER) (BRAIN) [%]	TSA Expression Rate (ER) (BREAST) [%]	TSA Expression Rate (ER) (OVARIAN) [%]	Expression Rate (ER) % (TSA expression rate in Cervical cancer) [%]	Expression Rate (ER) % (TSA expression rate in Esophageal) [%]	Expression Rate (ER) % (TSA expression rate in PROSTATE cancer) [%]
B1	50	50	100	50	100	67	60						
B2	55	36	29	80			27	9	74	82	32	56	98
